Measurements taken from the supplement of paper PMC7877785.
± gives the uncertainty stated by the source.

Experiment: self-splicing fitness, log relative to wild type (ln ratio); higher = more splicing; Tetrahymena group I intron in knt gene, E. coli kanamycin selection, DiMSum; sequences stand for … in CUCUCU…GGAGGGAAAAGUUAUCAGGCAUGCACCUGGUAGCUAGUCUUUAAACCAAUAGAUUGCAUCGGUUUAAAAGGCAAGACCGUCAAAUUGCGGGAAAGGGGUCAACAGCCGUUCAGUACCAAGUCUCAGGGGAAACUUUGAGAUGGCCUUGCAAAGGGUAUGGUAAUAAGCUGACGGACAUGGUCCUAACCACGCAGCCAAGUCCUAAGUCAACAGAUCUUCUGUUGAUAUGGAUGCAGUUCACAGACUAAAUGUCGGUCGGGGAAGAUGUAUUCUUCUCAUAAGAUAUAGUCGGACCUCUCCUUAAUGGGAGCUAGCGGAUGAAGUGAUGCAACACUGGAGCCGCUGGGAACUAAUUUGUAUGCGAAAGUAUAUUGAUUAGUUUUGGAGUACUCGUGGUCG
Summary of the method: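 Fitness was computed with DiMSum as the error-weighted combination of replicate fold changes, kanamycin versus none, each normalised to wild type. The library randomised all eight intron nucleotides of the P1ex region, with the intron placed in the knt kanamycin-resistance gene on pET-22b(+) in E. coli BL21(DE3). Six replicate transformations were grown overnight at 37°C or 30°C on LB agar with or without 25 μg/mL kanamycin, plus 100 μg/mL carbenicillin, 50 μM IPTG and 0.2% rhamnose. Pooled colonies were amplicon-sequenced on an Illumina HiSeq 2500.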

| Sequence | self-splicing fitness (ln) (30 °C) | self-splicing fitness (ln) (37 °C) |
| --- | --- | --- |
| CAGGAGCAAUAUUACGAUGG | -0.317 ± 0.091 | 0.171 ± 0.13 |
| CAGGAGCAAUAUUACGAUUU | -3.81 ± 0.28 | -0.961 ± 0.13 |
| CAGGAGCAAUAUUACGCACA | -2.48 ± 0.24 | -1.88 ± 0.23 |
| CAGGAGCAAUAUUACGCAUG | -3.78 ± 0.28 | -1.89 ± 0.2 |
| CAGGAGCAAUAUUACGCCAU | -2.73 ± 0.33 | -1.55 ± 0.41 |
| CAGGAGCAAUAUUACGCCGG |  | -2.22 ± 0.24 |
| CAGGAGCAAUAUUACGCGGG | -0.771 ± 0.15 | -1.84 ± 0.14 |
| CAGGAGCAAUAUUACGGAAG | -2.2 ± 0.13 | -1.67 ± 0.14 |
| CAGGAGCAAUAUUACGGACU | -1.86 ± 0.14 | -1.75 ± 0.3 |
| CAGGAGCAAUAUUACGGAUA |  | -0.862 ± 0.41 |
| CAGGAGCAAUAUUACGGCCA |  | 0.122 ± 0.3 |
| CAGGAGCAAUAUUACGGUAA |  | -2.51 ± 0.44 |
| CAGGAGCAAUAUUACGGUAG | -0.725 ± 0.12 | -0.902 ± 0.13 |
| CAGGAGCAAUAUUACGGUGC | -2.68 ± 0.26 | -1.76 ± 0.28 |
| CAGGAGCAAUAUUACGUAAG | -0.111 ± 0.097 | 0.23 ± 0.12 |
| CAGGAGCAAUAUUACGUACA | -2.55 ± 0.49 | -1.73 ± 0.42 |
| CAGGAGCAAUAUUACGUCGU |  | -1.97 ± 0.37 |
| CAGGAGCAAUAUUACGUUAA | -3.28 ± 0.43 | -2.66 ± 0.26 |
| CAGGAGCAAUAUUACGUUAG | -1.45 ± 0.084 | -0.918 ± 0.12 |
| CAGGAGCAAUAUUACGUUCA | -2.89 ± 0.12 | -3.54 ± 0.2 |

| Sequence | self-splicing fitness (ln) (30 °C) | self-splicing fitness (ln) (37 °C) |
| --- | --- | --- |
| CAGUAGCAAUAUUACGAACU | -1.4 ± 0.22 | -1.05 ± 0.17 |
| CAGUAGCAAUAUUACGACAC | -2.36 ± 0.22 | -1.28 ± 0.23 |
| CAGUAGCAAUAUUACGACAG | -0.798 ± 0.093 | -0.214 ± 0.12 |
| CAGUAGCAAUAUUACGACGG | -0.119 ± 0.085 | 0.411 ± 0.11 |
| CAGUAGCAAUAUUACGAGCG | -0.475 ± 0.087 | 0.263 ± 0.12 |
| CAGUAGCAAUAUUACGAGGG | -2.85 ± 0.13 | -4.18 ± 0.46 |
| CAGUAGCAAUAUUACGAUAC | -3.55 ± 0.36 | -2.51 ± 0.41 |
| CAGUAGCAAUAUUACGAUCG | 0.0663 ± 0.15 | 0.475 ± 0.17 |
| CAGUAGCAAUAUUACGCCAU | -0.742 ± 0.18 | -2.87 ± 0.47 |
| CAGUAGCAAUAUUACGCCUA | -0.488 ± 0.14 | -0.218 ± 0.15 |
| CAGUAGCAAUAUUACGCGAA | -4.22 ± 0.43 | -2.8 ± 0.31 |
| CAGUAGCAAUAUUACGCGUC | -4.24 ± 0.31 | -2.83 ± 0.24 |
| CAGUAGCAAUAUUACGGACC | -2.15 ± 0.36 |  |
| CAGUAGCAAUAUUACGGCAA | -3.53 ± 0.39 | -1.86 ± 0.27 |
| CAGUAGCAAUAUUACGGGCA | -3.05 ± 0.27 | -2.35 ± 0.25 |
| CAGUAGCAAUAUUACGGGCC | -2.57 ± 0.31 | -2.19 ± 0.3 |
| CAGUAGCAAUAUUACGGUAU | -3.79 ± 0.27 | -3.02 ± 0.28 |
| CAGUAGCAAUAUUACGGUCU | -3.35 ± 0.15 | -1.89 ± 0.14 |
| CAGUAGCAAUAUUACGGUUG | -1.52 ± 0.065 | -0.838 ± 0.083 |
| CAGUAGCAAUAUUACGUAAC |  | -0.919 ± 0.33 |
